Target: T1, HIS-TRIM21 (human, UniProt P19474 1-475)
T1 construct: human TRIM21 cDNA (full length cDNA by the plasmid paragraph) cloned into pET28a; source: bacterially purified (pET28a)
Experiment: pull-down; GST-CLASPIN 301–630aa immobilized on Glutathione Sepharose 4B beads incubated with HIS-TRIM21 for 4 h at 4°C; HIS-TRIM21 by immunoblot
Settings: both partners purified

T1 sequence (P19474 whole entry): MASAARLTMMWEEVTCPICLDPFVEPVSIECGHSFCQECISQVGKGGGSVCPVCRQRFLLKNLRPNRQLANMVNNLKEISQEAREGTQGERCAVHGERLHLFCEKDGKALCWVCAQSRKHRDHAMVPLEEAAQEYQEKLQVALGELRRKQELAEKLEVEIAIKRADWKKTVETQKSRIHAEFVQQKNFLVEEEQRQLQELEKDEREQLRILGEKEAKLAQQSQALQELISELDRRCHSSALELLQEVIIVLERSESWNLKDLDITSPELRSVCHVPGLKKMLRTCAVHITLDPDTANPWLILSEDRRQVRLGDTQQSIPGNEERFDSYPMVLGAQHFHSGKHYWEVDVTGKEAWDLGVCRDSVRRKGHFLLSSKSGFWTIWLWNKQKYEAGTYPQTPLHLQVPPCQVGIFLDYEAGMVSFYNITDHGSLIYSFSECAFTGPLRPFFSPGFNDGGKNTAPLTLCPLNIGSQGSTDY

B1: GST-CLASPIN 301–630aa (domain or fragment, human, UniProt Q9HAW4 301-630, looked up)
chain: ALNLPYHMPENKTIHDFFKRKPRPTCHGNAMALLKSSKYQSSHHKEIIDTANTTEMNSDHHSKGSEQTTGAENEVETNALPVVSKETQIITGSDESCRKDLVKNEELEIQEKQKQSDIRPSPGDSSVLQQESNFLGNNHSEECQVGGLVAFEPHALEGEGPQNPEETDEKVEEPEQQNKSSAVGPPEKVRRFTLDRLKQLGVDVSIKPRLGADEDSFVILEPETNRELEALKQRFWKHANPAAKPRAGQTVNVNVIVKDMGTDGKEELKADVVPVTLAPKKLDGASHTKPGEKLQVLKAKLQEAMKLRRFEERQKRQALFKLDNEDGFEE
notes: human CLASPIN F2 region, residues 301–630; also called GST fusion of the CLASPIN F2 region (301–630aa); source: bacterially purified (pGEX4T-1), immobilized on Glutathione Sepharose 4B
  binding result: binds

Reference: paper PMC8860585, “TRIM21 suppresses CHK1 activation by preferentially targeting CLASPIN for K63-linked ubiquitination” (Nucleic Acids Research, 2022)
